# Measurements: patent US10174111 (NATIONAL UNIVERSITY CORPORATION KOCHI UNIVERSITY, dated 2019)
# T1: human LSR (lipolysis stimulated lipoprotein receptor) (human, UniProt Q86X29 1-649)
# T1 construct: Stood on human ovarian cancer cells (RMG-I, OVSAHO, JHOS2, OVISE; endogenous) or on SKOV3-L45 cells made to stably express LSR (construct not described); also called hLSR; human LSR protein (NP_991403.1)
# T1 sequence: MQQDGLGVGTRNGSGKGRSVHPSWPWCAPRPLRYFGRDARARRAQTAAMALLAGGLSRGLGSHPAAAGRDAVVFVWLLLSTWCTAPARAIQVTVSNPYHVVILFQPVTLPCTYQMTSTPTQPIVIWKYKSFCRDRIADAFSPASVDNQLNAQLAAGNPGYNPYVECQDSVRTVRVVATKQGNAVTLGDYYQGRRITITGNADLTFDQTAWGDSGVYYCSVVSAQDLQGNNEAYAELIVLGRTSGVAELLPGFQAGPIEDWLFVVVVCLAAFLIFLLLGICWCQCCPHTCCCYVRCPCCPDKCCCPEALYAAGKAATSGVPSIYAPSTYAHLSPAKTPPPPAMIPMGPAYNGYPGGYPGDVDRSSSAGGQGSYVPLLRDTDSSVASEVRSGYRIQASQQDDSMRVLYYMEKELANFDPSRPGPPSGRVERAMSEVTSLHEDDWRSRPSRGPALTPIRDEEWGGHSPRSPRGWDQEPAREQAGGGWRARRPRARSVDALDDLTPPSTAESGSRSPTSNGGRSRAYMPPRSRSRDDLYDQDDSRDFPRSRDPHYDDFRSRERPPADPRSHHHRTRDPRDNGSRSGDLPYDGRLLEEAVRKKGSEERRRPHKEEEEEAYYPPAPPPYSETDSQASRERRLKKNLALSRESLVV
# T2: human LSR with a V5/His tag fused to the C-terminal, on the LSR-expressing cell strain (human, UniProt Q86X29 1-649)
# T2 construct: In panning Lot 1 a mammalian LSR-expressing cell strain was used whose construct is not described; also called human LSR-expressing chicken cell strain; not shown: V5/His tag of vector pcDNA3.1-V5/His-TOPO
# T2 sequence: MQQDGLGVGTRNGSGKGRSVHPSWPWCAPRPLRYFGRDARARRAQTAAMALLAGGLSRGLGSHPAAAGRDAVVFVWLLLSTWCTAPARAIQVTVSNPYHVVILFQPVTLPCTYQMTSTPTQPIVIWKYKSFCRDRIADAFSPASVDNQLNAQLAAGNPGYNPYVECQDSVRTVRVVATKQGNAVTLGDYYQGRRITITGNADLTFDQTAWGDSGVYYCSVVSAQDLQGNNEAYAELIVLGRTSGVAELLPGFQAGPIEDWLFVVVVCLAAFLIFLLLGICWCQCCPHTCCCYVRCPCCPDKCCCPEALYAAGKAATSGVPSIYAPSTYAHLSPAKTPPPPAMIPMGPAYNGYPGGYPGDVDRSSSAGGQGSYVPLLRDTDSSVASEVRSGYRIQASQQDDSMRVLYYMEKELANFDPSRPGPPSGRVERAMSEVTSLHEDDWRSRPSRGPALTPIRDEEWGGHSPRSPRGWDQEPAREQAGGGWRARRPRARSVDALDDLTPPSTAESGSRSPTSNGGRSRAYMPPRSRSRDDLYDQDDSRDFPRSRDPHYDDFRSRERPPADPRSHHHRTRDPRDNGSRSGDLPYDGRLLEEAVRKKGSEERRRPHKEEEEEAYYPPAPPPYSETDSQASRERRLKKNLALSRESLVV
# B1: anti-LSR mouse/chicken chimeric monoclonal antibody #9-7 (antibody, V domains shown)
# VH: AVTLDESGGGLQTPGGALSLVCKASGFTFSDYQMNWVRQAPSKGLEWVAGINGRSSWTDYGAAVKGRATISRDNGQSTVRLQLNNLRAEDTATYYCARGSSIDAWGHGTEVIVST
# VL: ALTQPASVSANPGETVKITCSGGGSYYGSYYYGWYQQKSPGSAPVTMIYNNNNRPSNIPSRFSGSLSGSTNTLTITGVQADEAVYYCGSIDSNIAGVFGAGTTLTV
# notes: also called anti-LSR antibody 9-7
# B2: anti-LSR mouse/chicken chimeric monoclonal antibody #1-25 (antibody, V domains shown)
# VH: AVTLDESGGGLQTPGGALSLVCKASGFDFSSYEMQWVRQAPGKGLEWVTGISGSGSSTRYGSAVKGRATISRDNGQSTVRLQLNNLRAEDTGTYYCARGSTIDAWGHGTEVTVST
# VL: ALTQPASVSANPGETVKITCSGGSSYAGSYYYGWYQQKSPGSAPVTVIYYNDQRPSDIPSRFSGSTSGSTATLTITGVQVEDEAVYICGTYEDSGGVFGAGTTLTV
# notes: also called No. 1-25; anti-LSR antibody 1-25
# B3: anti-LSR mouse/chicken chimeric monoclonal antibody #26-2 (antibody, V domains shown)
# VH: AVTLDESGGGLQTPGGGLSLVCKGSGFTFSNYEMQWVRQAPGKGLEWVAGISGAGSTTRYGSAVQGRATISRDNGQSTVRLQLNNLRAEDTGTYYCARGSNIDGWGHGTEVIVST
# VL: ALTQPSSVSANPGETVKITCSGGGRYAESYYYSWFQQKSPGSAPVTVIYWNDKRPSNIPSRFSGSLSGSTNTLTITGVRAEDEAVYYCGAYEDSSAGFGAGTTLTV
# notes: also called No. 26-2; anti-LSR antibody 26-2
# B4: anti-LSR mouse/chicken chimeric monoclonal antibody #27-6 (antibody, V domains shown)
# VH: AVTLDESGGGLQMPGGALSLVCRASGFDFSSYEMQWIRQAPGKGLEWVAGISGAGSGTRYGSAVKGRATISRDNGQSTVRLQLNNLRAEDTGIYFCARSSNIDAWGHGTEVTVST
# VL: ALTQPASVSANLGGTVKITCSGGGRYAESYYYGWYQQKSPGSTPVTVIYWNDKRPSNIPSRFSGSLSGSTNTLTITGVQVEDEAVYFCGSYEDSRSAFGAGTTLTV
# notes: also called No. 27-6; anti-LSR antibody 27-6
# B5: anti-LSR mouse/chicken chimeric monoclonal antibody #1-43 (antibody, V domains shown)
# VH: AVTLDESGGGLQTPGGALSLVCEASGFDFSSHEMQWVRQAPGKGLEWVAGISGAGSSTRYGSAVQGRATISRDNGQSTVRLQLNNLRAEDTGTYYCARGSLIDAWGHGTEVIVST
# VL: ALTQPASVSANPGETVKITCSGGGSYYGSYYYSWHQQKSPGSAPVTVIYENNQRPSDIPSRFSGSKSGSTATLTITGVQAEDEAVYFCGSYDSSAGLFGAGTTLTV
# notes: also called No. 1-43; anti-LSR antibody 1-43
# B6: SEQ ID NO 3 (scFv phage antibody clone, anti-LSR antibody 26-2 sequence) (scFv)
# scFv: AVTLDESGGGLQTPGGGLSLVCKGSGFTFSNYEMQWVRQAPGKGLEWVAGISGAGSTTRYGSAVQGRATISRDNGQSTVRLQLNNLRAEDTGTYYCARGSNIDGWGHGTEVIVSTGGGGSGGGGSGGGGSDVALTQPSSVSANPGETVKITCSGGGRYAESYYYSWFQQKSPGSAPVTVIYWNDKRPSNIPSRFSGSLSGSTNTLTITGVRAEDEAVYYCGAYEDSSAGFGAGTTLTV
# notes: the phage coat protein fusion is not described; also called 26-2 scFv
# B7: SEQ ID NO 4 (scFv phage antibody clone, anti-LSR antibody 27-6 sequence) (scFv)
# scFv: AVTLDESGGGLQMPGGALSLVCRASGFDFSSYEMQWIRQAPGKGLEWVAGISGAGSGTRYGSAVKGRATISRDNGQSTVRLQLNNLRAEDTGIYFCARSSNIDAWGHGTEVTVSTGGGGSGGGGSGGGGSDVALTQPASVSANLGGTVKITCSGGGRYAESYYYGWYQQKSPGSTPVTVIYWNDKRPSNIPSRFSGSLSGSTNTLTITGVQVEDEAVYFCGSYEDSRSAFGAGTTLTV
# notes: the phage coat protein fusion is not described; also called 27-6 scFv
# B8: SEQ ID NO 5 (scFv phage antibody clone, anti-LSR antibody 1-25 sequence) (scFv)
# scFv: AVTLDESGGGLQTPGGALSLVCKASGFDFSSYEMQWVRQAPGKGLEWVTGISGSGSSTRYGSAVKGRATISRDNGQSTVRLQLNNLRAEDTGTYYCARGSTIDAWGHGTEVTVSTGGGGSGGGGSGGGGSDVALTQPASVSANPGETVKITCSGGSSYAGSYYYGWYQQKSPGSAPVTVIYYNDQRPSDIPSRFSGSTSGSTATLTITGVQVEDEAVYICGTYEDSGGVFGAGTTLTV
# notes: the phage coat protein fusion is not described; also called 1-25 scFv
# B9: SEQ ID NO 6 (scFv phage antibody clone, anti-LSR antibody 1-43 sequence) (scFv)
# scFv: AVTLDESGGGLQTPGGALSLVCEASGFDFSSHEMQWVRQAPGKGLEWVAGISGAGSSTRYGSAVQGRATISRDNGQSTVRLQLNNLRAEDTGTYYCARGSLIDAWGHGTEVIVSTGGGGSGGGGSGGGGSDVALTQPASVSANPGETVKITCSGGGSYYGSYYYSWHQQKSPGSAPVTVIYENNQRPSDIPSRFSGSKSGSTATLTITGVQAEDEAVYFCGSYDSSAGLFGAGTTLTV
# notes: the phage coat protein fusion is not described; also called 1-43 scFv
# Target: T1, human LSR (lipolysis stimulated …)
# Test: FACS on RMG-I cells stained with various antibody concentrations, goat anti-mouse IgG-FITC, fit in GraphPad Prism
# Method: Then, using an anti-LSR antibody (#1-25 or #9-7), immunohistochemical staining for LSR was carried out according to the ABC method. In the ovary serous adenocarcinoma tissue and the endometrial cancer tissue, LSR was highly expressed at the tumor sites. Immunohistochemical Staining Using Normal Frozen Tissue Array FDA standard human tissue microarrays (T6234701-2, Biochain) were immunohistochemically stained using the anti-LSR antibody #1-25. […] Calculation of Binding Constant Various concentration of various anti-LSR antibodies were reacted with RMG-I cells and they were stained using goat anti-mouse IgG-FITC (Southern Biotech, Birmingham, Ala., USA) and analyzed by a FACSCanto® II cytometer (Becton Dickinson). With regard to the fluorescence intensity of FITC, a KD value was analyzed using GraphPad Prism® Software Version 6.0 for Windows (GraphPad Software Inc., San Diego, Calif., USA). When the binding ability of the made LSR antibodies was analyzed by FACS®, antibodies having a high binding ability were obtained. The following analysis was carried out using two kinds of clones having the highest binding ability in them (FIG. 37B). […] Cell Cycle Analysis Ovarian clear cell adenocarcinoma (RMG-I) was seeded into a 6-well plate at 15,000 cells/well and incubated in a CO_2 incubator at 37° C. overnight. The culture supernatant was discarded and 100 µg/ml anti-LSR antibody or mouse IgG2a diluted with RPMI 1640 medium (containing 1% FBS and 1% penicillin-streptomycin) was added at 2 mL/well for each. After 96 hours, cell cycle analysis was carried out using the Cycle Test Plus® DNA Reagent kits (BD Biosciences). Western Blot Ovarian clear cell adenocarcinoma (RMG-I) was seeded into a 6-well plate at 15,000 cells/well and incubated in a CO_2 incubator at 37° C. overnight. The culture supernatant was discarded and 100 µg/ml anti-LSR antibody or mouse IgG2a diluted with RPMI 1640 medium (containing 1% FBS and 1% penicillin-streptomycin) was added at 2 mL/well for each.
row,Binder,Kd
1,B1,2.52 nM
2,B2,2.03 nM
3,B3,4.04 nM
4,B4,4.29 nM
5,B5,24.6 nM

# Target: T2, human LSR with a V5/His tag fused to …
# Test: cell panning of the scFv phage library on the LSR-expressing cell strain, reactivity confirmed by FACS, positive phage clones selected
# Method: The scFv phage antibody library was added to a non-LSR-expressing cell strain to carry out absorption operation of nonspecific phages, and then was reacted with a LSR-expressing cell strain. In Lot 1, a mammalian cell strain was used and in Lot 2, cell panning was carried out using the chicken lymphoblast-like cell strain used for immunization. After washing with organic solvent, phages specifically binding to the LSR-expressing cell strain were recovered and then *Escherichia coli* were infected with it. Panning was carried out four times and then the reactivity of the library was confirmed by FACS analysis using the LSR-expressing cell strain. Phages from a library of which the reactivity had most increased were cloned, positive clones were selected, and then the sequences of six types of clones were determined (SEQ ID NOs: 1 to 6 and FIG. 9). For cell panning, a method described in "Giordano et al., Nat Med. 2001 November; 7(11): 1249-53" was followed.
row,Binder,binding result
1,B6,binds
2,B7,binds
3,B8,binds
4,B9,binds
